In patent US6982170:

Legend:
[1] = tested on: human wild type FGF-1 (fibroblast growth factor-1)
[2] = tested on: thrombin resistant mutant FGF-1R136K
[3] = molecular target: human wild type FGF-1 (fibroblast growth factor-1) (human) (UniProt P05230); experiment: cell-based or functional assay

Substance | degradation of FGF-1 on Western blot (bands at 17 kD and 14 kD), no heparin [1] | degradation of FGF-1 on Western blot [2] | size of the cleavage band on Western blot [2] | BAEC growth (cell number after 3 days) with thrombin-pretreated growth factor [3]
thrombin | wild-type FGF-1 was degraded by even the lowest concentration of thrombin used (0.5 U/ml) | FGF-1R136K, even in the absence of heparin, was relatively resistant to thrombin degradation | the band detected upon treatment of FGF-1R136K mutant is slightly larger than the degradation band from wild type FGF-1 | 
thrombin (enzyme) |  |  |  | < 1 U/ml
